Assay results: PMC2517623, “The NDR/LATS Family Kinase Cbk1 Directly Controls Transcriptional Asymmetry” (PLoS Biology, 2008)

B1: GST-Ace2(122-150) F127V (domain or fragment)
chain: SGTAIVGFLGHNKTLSISSLQQSILNMSK
notes: source: E. coli BL21(DE3)RIL, immobilised from lysate on glutathione-sepharose and washed; not shown: GST, N-terminal, kept
B2: GST-Ace2(122-150), wild-type (domain or fragment)
chain: SGTAIFGFLGHNKTLSISSLQQSILNMSK
notes: as for B1
B3: GST-Ace2(122-150) S137D (domain or fragment)
chain: SGTAIFGFLGHNKTLDISSLQQSILNMSK
notes: as for B1
B4: GST-Ace2(122-150) S122D (domain or fragment)
chain: DGTAIFGFLGHNKTLSISSLQQSILNMSK
notes: as for B1

Each binder was assayed against His6-Crm1 (S. cerevisiae, UniProt P30822 1-1084) (assay: pull-down; GST fusions immobilised on glutathione-sepharose from E. coli lysate and washed five times in PBS/KMD; His6-Xpo1 (Crm1) 5 μM in 100 μl, 4 °C, 15 min; washed with TBST; SDS-PAGE, GelCode Blue; without Ran-GTP). Settings: both partners purified.

Binding result, binds:
B1
B2
B3
B4
